Test results published in publication PMC6770189, “Multipoint TvDAAO Mutants for Cephalosporin C Bioconversion” (International Journal of Molecular Sciences, 2019).

Assays:
TvDAAO = target: T1, TvDAAO (Trigonopsis variabilis, UniProt Q99042); test: horseradish peroxidase / ABTS coupled assay, […] nm; type: biochemical; settings: 0.05 M potassium phosphate pH 8.0, 30 °C, air saturated; read-out: wt-TvDAAO / KM
T1 construct: gene DAO1; FAD-containing; no tag mentioned

[1] = substrate: [H][C@]12SCC(COC(C)=O)=C(C(=O)O)N1C(=O)[C@H]2NC(=O)CCC[C@@H](N)C(=O)O; test: CPC consumption by HPLC, initial rates; type: biochemical, Trigonopsis variabilis; settings: 0.1 M potassium phosphate pH 8.0, 30 °C, air saturated
Description: CPC consumption by HPLC, initial rates on TvDAAO

purified protein [2] = substrate: CC(C)C[C@@H](N)C(=O)O; test: purified protein; settings: 0.05 M potassium phosphate pH 8.0, 30 °C, air saturated
purified protein [3] = substrate: CC(C)[C@@H](N)C(=O)O; test: purified protein; settings: 0.05 M potassium phosphate pH 8.0, 30 °C, air saturated
purified protein [4] = substrate: C[C@@H](N)C(=O)O; test: purified protein; settings: 0.05 M potassium phosphate pH 8.0, 30 °C, air saturated
purified protein [5] = substrate: NC(=O)C[C@@H](N)C(=O)O; test: purified protein; settings: 0.05 M potassium phosphate pH 8.0, 30 °C, air saturated
purified protein [6] = substrate: CSCC[C@@H](N)C(=O)O; test: purified protein; type: biochemical, Trigonopsis variabilis; settings: 0.05 M potassium phosphate pH 8.0, 30 °C, air saturated

| Km (TvDAAO) [µM] | Molecule | Km [1] [µM] | kcat [1] [s⁻¹] | kcat/Km [1] [M⁻¹ s⁻¹] | other results |
| --- | --- | --- | --- | --- | --- |
| 490 | N[C@H](Cc1c[nH]c2ccccc12)C(=O)O [D-Trp] |  |  |  |  |
| 460 | CSCC[C@@H](N)C(=O)O [D-Met] |  |  |  |  |
| 37000 | N[C@H](CO)C(=O)O [D-Ser] |  |  |  |  |
| 370 | N[C@H](Cc1ccccc1)C(=O)O [D-Phe] |  |  |  |  |
| 11000 | C[C@H](O)[C@@H](N)C(=O)O [D-Thr] |  |  |  |  |
|  | TvDAAO (Trigonopsis variabilis; C108F/C298Q/E32R/F33D/F54S/M156L) (protein, FAD-containing; no tag mentioned) MAKIVVIGAGVAGLTTALQLLRKGHEVTIVSRDTPGDLSIGYTSPWAGANWLTSYDGGKLADYDAVSYPILRELARSSPEAGIRLISQRSHVLKRDLPKLEVAMSAIFQRNPWFKNTVDSFEIIEDRSRIVHDDVAYLVEFRSVCIHTGVYLNWLLSQCLSLGATVVKRRVNHIKDANLLHSSGSRPDVIVNCSGLFARFLGGVEDKKMYPIRGQVVLVRNSLPFMASFSSTPEKENEDEALYIMTRFDGTSIIGGCFQPNNWSSEPDPSLTHRILSRALDRFPELTKDGPLDIVREQVGHRPGREGGPRVELEKIPGVGFVVHNYGAAGAGYQSSYGMADEAVSYVERALTRPNL | 1400 ± 300 | 68 ± 0.5 | 50000 ± 9000 |  |
|  | TvDAAO (Trigonopsis variabilis; C108F/C298G/E32R/F33D/F54S/M156L) (protein, FAD-containing; no tag mentioned) MAKIVVIGAGVAGLTTALQLLRKGHEVTIVSRDTPGDLSIGYTSPWAGANWLTSYDGGKLADYDAVSYPILRELARSSPEAGIRLISQRSHVLKRDLPKLEVAMSAIFQRNPWFKNTVDSFEIIEDRSRIVHDDVAYLVEFRSVCIHTGVYLNWLLSQCLSLGATVVKRRVNHIKDANLLHSSGSRPDVIVNCSGLFARFLGGVEDKKMYPIRGQVVLVRNSLPFMASFSSTPEKENEDEALYIMTRFDGTSIIGGCFQPNNWSSEPDPSLTHRILSRALDRFPELTKDGPLDIVREGVGHRPGREGGPRVELEKIPGVGFVVHNYGAAGAGYQSSYGMADEAVSYVERALTRPNL | 800 ± 200 | 65 ± 5 | 79000 ± 15000 |  |
|  | TvDAAO (Trigonopsis variabilis; C108F/F54S/M156L) (protein, FAD-containing; no tag mentioned) MAKIVVIGAGVAGLTTALQLLRKGHEVTIVSEFTPGDLSIGYTSPWAGANWLTSYDGGKLADYDAVSYPILRELARSSPEAGIRLISQRSHVLKRDLPKLEVAMSAIFQRNPWFKNTVDSFEIIEDRSRIVHDDVAYLVEFRSVCIHTGVYLNWLLSQCLSLGATVVKRRVNHIKDANLLHSSGSRPDVIVNCSGLFARFLGGVEDKKMYPIRGQVVLVRNSLPFMASFSSTPEKENEDEALYIMTRFDGTSIIGGCFQPNNWSSEPDPSLTHRILSRALDRFPELTKDGPLDIVRECVGHRPGREGGPRVELEKIPGVGFVVHNYGAAGAGYQSSYGMADEAVSYVERALTRPNL | 1900 ± 600 | 119 ± 7 | 60000 ± 20000 |  |
|  | TvDAAO (Trigonopsis variabilis; C108F/E32R/F33D/F54S) (protein, FAD-containing; no tag mentioned) MAKIVVIGAGVAGLTTALQLLRKGHEVTIVSRDTPGDLSIGYTSPWAGANWLTSYDGGKLADYDAVSYPILRELARSSPEAGIRLISQRSHVLKRDLPKLEVAMSAIFQRNPWFKNTVDSFEIIEDRSRIVHDDVAYLVEFRSVCIHTGVYLNWLMSQCLSLGATVVKRRVNHIKDANLLHSSGSRPDVIVNCSGLFARFLGGVEDKKMYPIRGQVVLVRNSLPFMASFSSTPEKENEDEALYIMTRFDGTSIIGGCFQPNNWSSEPDPSLTHRILSRALDRFPELTKDGPLDIVRECVGHRPGREGGPRVELEKIPGVGFVVHNYGAAGAGYQSSYGMADEAVSYVERALTRPNL | 1900 ± 400 | 88 ± 10 | 45000 ± 11000 |  |
|  | TvDAAO (Trigonopsis variabilis; C108F/E32R/F33D) (protein, FAD-containing; no tag mentioned) MAKIVVIGAGVAGLTTALQLLRKGHEVTIVSRDTPGDLSIGYTSPWAGANWLTFYDGGKLADYDAVSYPILRELARSSPEAGIRLISQRSHVLKRDLPKLEVAMSAIFQRNPWFKNTVDSFEIIEDRSRIVHDDVAYLVEFRSVCIHTGVYLNWLMSQCLSLGATVVKRRVNHIKDANLLHSSGSRPDVIVNCSGLFARFLGGVEDKKMYPIRGQVVLVRNSLPFMASFSSTPEKENEDEALYIMTRFDGTSIIGGCFQPNNWSSEPDPSLTHRILSRALDRFPELTKDGPLDIVRECVGHRPGREGGPRVELEKIPGVGFVVHNYGAAGAGYQSSYGMADEAVSYVERALTRPNL | 1150 ± 80 | 25.5 ± 1.4 | 22000 ± 2000 |  |
|  | TvDAAO (Trigonopsis variabilis; C108F/E32R/F33D/F54S/M156L) (protein, FAD-containing; no tag mentioned) MAKIVVIGAGVAGLTTALQLLRKGHEVTIVSRDTPGDLSIGYTSPWAGANWLTSYDGGKLADYDAVSYPILRELARSSPEAGIRLISQRSHVLKRDLPKLEVAMSAIFQRNPWFKNTVDSFEIIEDRSRIVHDDVAYLVEFRSVCIHTGVYLNWLLSQCLSLGATVVKRRVNHIKDANLLHSSGSRPDVIVNCSGLFARFLGGVEDKKMYPIRGQVVLVRNSLPFMASFSSTPEKENEDEALYIMTRFDGTSIIGGCFQPNNWSSEPDPSLTHRILSRALDRFPELTKDGPLDIVRECVGHRPGREGGPRVELEKIPGVGFVVHNYGAAGAGYQSSYGMADEAVSYVERALTRPNL | 1600 ± 300 | 106 ± 9 | 66000 ± 12000 |  |
|  | TvDAAO (Trigonopsis variabilis) (protein, FAD-containing; no tag mentioned) MAKIVVIGAGVAGLTTALQLLRKGHEVTIVSEFTPGDLSIGYTSPWAGANWLTFYDGGKLADYDAVSYPILRELARSSPEAGIRLISQRSHVLKRDLPKLEVAMSAICQRNPWFKNTVDSFEIIEDRSRIVHDDVAYLVEFRSVCIHTGVYLNWLMSQCLSLGATVVKRRVNHIKDANLLHSSGSRPDVIVNCSGLFARFLGGVEDKKMYPIRGQVVLVRNSLPFMASFSSTPEKENEDEALYIMTRFDGTSIIGGCFQPNNWSSEPDPSLTHRILSRALDRFPELTKDGPLDIVRECVGHRPGREGGPRVELEKIPGVGFVVHNYGAAGAGYQSSYGMADEAVSYVERALTRPNL | 1400 ± 400 | 26 ± 3 | 18000 ± 5000 | Km (purified protein [2]): 400 µM; kcat (purified protein [2]): 29 s⁻¹; Km (purified protein [3]): 14000 µM; kcat (purified protein [3]): 85 s⁻¹; Km (purified protein [4]): 17000 µM; kcat (purified protein [4]): 109 s⁻¹; Km (purified protein [5]): 23000 µM; kcat (purified protein [5]): 62 s⁻¹ |
|  | TvDAAO (Trigonopsis variabilis; C108F/C298N/E32R/F33D/F54S/M156L) (protein, FAD-containing; no tag mentioned) MAKIVVIGAGVAGLTTALQLLRKGHEVTIVSRDTPGDLSIGYTSPWAGANWLTSYDGGKLADYDAVSYPILRELARSSPEAGIRLISQRSHVLKRDLPKLEVAMSAIFQRNPWFKNTVDSFEIIEDRSRIVHDDVAYLVEFRSVCIHTGVYLNWLLSQCLSLGATVVKRRVNHIKDANLLHSSGSRPDVIVNCSGLFARFLGGVEDKKMYPIRGQVVLVRNSLPFMASFSSTPEKENEDEALYIMTRFDGTSIIGGCFQPNNWSSEPDPSLTHRILSRALDRFPELTKDGPLDIVRENVGHRPGREGGPRVELEKIPGVGFVVHNYGAAGAGYQSSYGMADEAVSYVERALTRPNL | 2900 ± 500 | 121 ± 15 | 42000 ± 8000 | Km (purified protein [6]): 1400 µM; kcat (purified protein [6]): 41 s⁻¹ |

| Molecule | Km (TvDAAO) [µM] | Km [1] [µM] | kcat [1] [s⁻¹] | kcat/Km [1] [M⁻¹ s⁻¹] | other results |
| --- | --- | --- | --- | --- | --- |
| NCCCC[C@@H](N)C(=O)O [D-Lys] | 29000 |  |  |  |  |
| N[C@H](Cc1ccc(O)cc1)C(=O)O [D-Tyr] | 450 |  |  |  |  |
